According to article PMC8808184:

Assays:
[1] = molecular target: FN1–FN3 region of zebrafish CNTN4 (zebrafish); assay: BLI; biotinylated zebrafish CNTN4(FN1–FN3) immobilised on streptavidin sensors, E1 domains of zebrafish APPb or APLP2 in solution; Octet K2; KD from the signal at equilibrium
[2] = molecular target: FN1-FN3 domains of zebrafish CNTN4, biotinylated (zebrafish); assay: BLI; Octet K2; biotinylated FN1-FN3 domains of zebrafish CNTN4 immobilised on streptavidin sensors, E1 domains of zebrafish APPb or APLP2 in solution; steady state KD from the maximal signal at equilibrium against concentration
[3] = molecular target: FN1-FN3 domains of zebrafish CNTN4, biotinylated (zebrafish); assay: BLI; Octet K2; biotinylated FN1-FN3 domains of zebrafish CNTN4 immobilised on streptavidin sensors, E1 domains of zebrafish APPb or APLP2 in solution; average constants of the kinetic fit
[4] = molecular target: E1 domain of chicken APP, biotinylated (chicken); assay: BLI; BLItz; biotinylated amyloid E1 domain ([…] nM) immobilised on streptavidin tips, CNTN FN1-FN3 in solution; room temperature; 150 mM NaCl, 10 mM Na-Hepes pH 7.5, 1 mg/ml BSA, 0.02% Tween-20; steady state KD from the maximal signal at equilibrium against concentration
[5] = molecular target: E1 domain of chicken APP, biotinylated (chicken); assay: BLI; BLItz; biotinylated amyloid E1 domain ([…] nM) immobilised on streptavidin tips, CNTN FN1-FN3 in solution; room temperature; 150 mM NaCl, 10 mM Na-Hepes pH 7.5, 1 mg/ml BSA, 0.02% Tween-20; average constants of the kinetic fit (the paper says koff attained or exceeded the accuracy limits of the instruments)
[6] = molecular target: E1 domain of chicken APLP2, biotinylated (chicken); assay: as above
[7] = molecular target: E1 domain of human APLP1, biotinylated (human) (UniProt P51693); assay: BLI; BLItz; biotinylated amyloid E1 domain ([…] nM) immobilised on streptavidin tips, CNTN FN1-FN3 in solution; room temperature; 150 mM NaCl, 10 mM Na-Hepes pH 7.5, 1 mg/ml BSA, 0.02% Tween-20; steady state KD from the maximal signal at equilibrium against concentration
[8] = molecular target: E1 domain of human APP, biotinylated (human) (UniProt P05067); assay: as above
[9] = molecular target: E1 domain of human APLP1, biotinylated (human) (UniProt P51693); assay: BLI; BLItz; biotinylated amyloid E1 domain ([…] nM) immobilised on streptavidin tips, CNTN FN1-FN3 in solution; room temperature; 150 mM NaCl, 10 mM Na-Hepes pH 7.5, 1 mg/ml BSA, 0.02% Tween-20; average constants of the kinetic fit (the paper says koff attained or exceeded the accuracy limits of the instruments)
[10] = molecular target: E1 domain of human APP, biotinylated (human) (UniProt P05067); assay: as above
[11] = molecular target: E1 domain of human APLP2, biotinylated (human) (UniProt Q06481); assay: as above
[12] = molecular target: E1 domain of human APLP2, biotinylated (human) (UniProt Q06481); assay: BLI; BLItz; biotinylated amyloid E1 domain ([…] nM) immobilised on streptavidin tips, CNTN FN1-FN3 in solution; room temperature; 150 mM NaCl, 10 mM Na-Hepes pH 7.5, 1 mg/ml BSA, 0.02% Tween-20; steady state KD from the maximal signal at equilibrium against concentration
[13] = molecular target: E1 domain of mouse APP, biotinylated (mouse) (UniProt P12023); assay: BLI; BLItz; biotinylated amyloid E1 domain ([…] nM) immobilised on streptavidin tips, CNTN FN1-FN3 in solution; room temperature; 150 mM NaCl, 10 mM Na-Hepes pH 7.5, 1 mg/ml BSA, 0.02% Tween-20; average constants of the kinetic fit (the paper says koff attained or exceeded the accuracy limits of the instruments)
[14] = molecular target: E1 domain of zebrafish APPb, biotinylated (zebrafish); assay: as above
[15] = molecular target: E1 domain of chicken APP (chicken); assay: BLI; biotinylated E1 domain ([…] nM) immobilised on streptavidin tips, CNTN FN1–FN3 in solution; room temperature; 150 mM NaCl, 10 mM Na-Hepes pH 7.5, 1 mg/ml BSA, 0.02% Tween-20; BLItz or Octet K2; KD from the signal at equilibrium
[16] = molecular target: E1 domain of chicken APLP2 (chicken); assay: as above
[17] = molecular target: E1 domain of zebrafish APPb (zebrafish); assay: as above
[18] = molecular target: extracellular region of amyloid precursor protein (APP) fused to human IgG1 Fc or to FcYTS (UniProt P12023); assay: AlphaScreen or HTRF; ectodomain-FcYTS on Strep-Tactin donor beads and ectodomain-Fc on protein A acceptor beads; dialysed HEK293 conditioned media; both tag orientations; 1 h at room temperature; 150 mM NaCl, 20 mM Na-Hepes pH 7.5, 2 mM CaCl2, 2 mM MgCl2, BSA, Triton X-100, Tween-20; a pair counts with signal over background of at least two in each orientation

Sequence of FN1-FN3 region of mouse CNTN3 (Q07409 20-1002): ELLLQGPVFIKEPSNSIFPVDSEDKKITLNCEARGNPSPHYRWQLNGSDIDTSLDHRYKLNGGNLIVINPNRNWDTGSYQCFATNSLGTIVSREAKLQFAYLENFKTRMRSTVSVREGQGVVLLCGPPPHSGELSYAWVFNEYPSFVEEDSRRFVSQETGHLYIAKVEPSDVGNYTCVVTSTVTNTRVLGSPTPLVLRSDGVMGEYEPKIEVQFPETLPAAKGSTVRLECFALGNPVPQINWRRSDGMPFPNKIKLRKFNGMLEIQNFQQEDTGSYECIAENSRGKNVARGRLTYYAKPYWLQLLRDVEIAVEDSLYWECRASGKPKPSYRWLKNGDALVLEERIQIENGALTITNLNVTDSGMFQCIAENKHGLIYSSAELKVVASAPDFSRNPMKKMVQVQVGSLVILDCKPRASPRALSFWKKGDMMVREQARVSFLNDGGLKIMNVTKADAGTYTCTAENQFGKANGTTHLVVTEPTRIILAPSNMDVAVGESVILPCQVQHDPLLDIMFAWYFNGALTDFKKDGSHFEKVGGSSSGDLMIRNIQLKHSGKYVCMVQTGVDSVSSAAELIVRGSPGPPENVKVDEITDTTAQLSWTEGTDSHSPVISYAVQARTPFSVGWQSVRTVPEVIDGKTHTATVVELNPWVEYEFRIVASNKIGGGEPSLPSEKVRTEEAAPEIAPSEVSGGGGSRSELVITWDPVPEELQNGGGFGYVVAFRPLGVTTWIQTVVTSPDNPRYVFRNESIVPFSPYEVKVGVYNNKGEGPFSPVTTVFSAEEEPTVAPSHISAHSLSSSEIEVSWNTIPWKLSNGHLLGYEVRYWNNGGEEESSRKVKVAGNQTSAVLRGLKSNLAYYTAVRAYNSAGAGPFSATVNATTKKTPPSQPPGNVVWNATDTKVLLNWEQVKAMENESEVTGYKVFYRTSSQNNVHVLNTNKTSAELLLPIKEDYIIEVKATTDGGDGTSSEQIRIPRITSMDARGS
Sequence of E1 domain of human APLP2, biotinylated (human) (Q06481 46-205): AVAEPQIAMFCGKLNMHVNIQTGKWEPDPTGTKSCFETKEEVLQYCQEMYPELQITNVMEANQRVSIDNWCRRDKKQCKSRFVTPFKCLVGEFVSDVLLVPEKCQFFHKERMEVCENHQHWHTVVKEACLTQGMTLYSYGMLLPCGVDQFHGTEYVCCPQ
Sequence of E1 domain of human APLP1, biotinylated (human) (P51693 50-212): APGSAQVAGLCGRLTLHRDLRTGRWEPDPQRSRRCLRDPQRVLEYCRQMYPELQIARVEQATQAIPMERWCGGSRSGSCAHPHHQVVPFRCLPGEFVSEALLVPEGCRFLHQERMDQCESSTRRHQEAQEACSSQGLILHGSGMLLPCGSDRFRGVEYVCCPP
Sequence of ectodomain of contactin 4 (CNTN4) fused to human IgG1 Fc or to FcYTS (Q69Z26 19-1000): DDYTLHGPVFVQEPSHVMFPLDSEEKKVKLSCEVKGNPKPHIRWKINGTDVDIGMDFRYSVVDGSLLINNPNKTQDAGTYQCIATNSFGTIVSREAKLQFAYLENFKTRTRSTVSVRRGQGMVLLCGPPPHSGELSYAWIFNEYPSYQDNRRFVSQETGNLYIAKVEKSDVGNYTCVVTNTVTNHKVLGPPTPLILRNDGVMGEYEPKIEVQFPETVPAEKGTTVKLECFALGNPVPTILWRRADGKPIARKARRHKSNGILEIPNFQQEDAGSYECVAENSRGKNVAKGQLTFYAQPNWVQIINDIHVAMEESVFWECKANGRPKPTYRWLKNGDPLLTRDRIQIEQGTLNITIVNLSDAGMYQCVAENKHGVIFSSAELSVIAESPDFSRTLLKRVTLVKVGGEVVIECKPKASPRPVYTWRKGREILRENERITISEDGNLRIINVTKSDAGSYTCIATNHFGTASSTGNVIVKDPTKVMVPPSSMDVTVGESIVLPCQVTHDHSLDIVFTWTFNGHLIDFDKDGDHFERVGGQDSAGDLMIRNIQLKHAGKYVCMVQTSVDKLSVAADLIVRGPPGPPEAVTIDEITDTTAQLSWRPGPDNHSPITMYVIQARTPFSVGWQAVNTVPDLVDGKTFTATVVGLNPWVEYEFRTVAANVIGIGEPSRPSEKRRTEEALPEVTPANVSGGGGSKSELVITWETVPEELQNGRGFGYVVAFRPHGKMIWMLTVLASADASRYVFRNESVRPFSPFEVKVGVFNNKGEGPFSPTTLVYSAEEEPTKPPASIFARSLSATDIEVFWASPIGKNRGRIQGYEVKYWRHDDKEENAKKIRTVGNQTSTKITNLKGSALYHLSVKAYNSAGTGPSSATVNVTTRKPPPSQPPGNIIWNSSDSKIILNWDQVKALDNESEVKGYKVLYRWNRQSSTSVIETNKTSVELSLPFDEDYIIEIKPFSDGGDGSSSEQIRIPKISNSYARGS

E1 domain of zebrafish APLP2 (domain or fragment)
Kd [1]: 21.4 µM

E1 domain of zebrafish APPb (domain or fragment)
Kd [2]: 0.401 µM
Kd [1]: 0.4 µM
Kd [3]: 0.11 µM
koff [3]: 0.03 s⁻¹
kon [3]: 170000 M⁻¹ s⁻¹

FN1-FN3 region of chicken CNTN3 (domain or fragment)
Kd [4]: 46.8 µM
Kd [5]: 182 µM
koff [5]: 0.9 s⁻¹
kon [5]: 7250 M⁻¹ s⁻¹

FN1-FN3 region of chicken CNTN4 (domain or fragment)
Kd [6]: 26.6 µM
koff [6]: 0.33 s⁻¹
kon [6]: 21600 M⁻¹ s⁻¹
Kd [5]: 8.2 µM
koff [5]: 0.19 s⁻¹
kon [5]: 33900 M⁻¹ s⁻¹

FN1-FN3 region of chicken CNTN4 T751A, V752A (domain or fragment)
Kd [4]: 20.9 µM
Kd [5]: 441 µM
koff [5]: 0.38 s⁻¹
kon [5]: 10300 M⁻¹ s⁻¹

FN1-FN3 region of chicken CNTN4 Y781A, E786A (domain or fragment)
Kd [4]: 115 µM
Kd [5]: 330 µM
koff [5]: 0.59 s⁻¹
kon [5]: 5450 M⁻¹ s⁻¹

FN1-FN3 region of human CNTN3 (from UniProt Q9P232 20-1002) (domain or fragment)
Kd [7]: 9.1 µM
Kd [8]: 63.3 µM
Kd [9]: 4.5 µM
koff [9]: 0.1 s⁻¹
kon [9]: 2190 M⁻¹ s⁻¹
Kd [10]: 403 µM
koff [10]: 0.79 s⁻¹
kon [10]: 2560 M⁻¹ s⁻¹

FN1-FN3 region of human CNTN4 (from UniProt Q8IWV2 19-1000) (domain or fragment)
Kd [7]: 1.5 µM
Kd [8]: 8 µM
Kd [9]: 0.4 µM
koff [9]: 0.03 s⁻¹
kon [9]: 64500 M⁻¹ s⁻¹
Kd [11]: 4.8 µM
koff [11]: 0.2 s⁻¹
kon [11]: 43000 M⁻¹ s⁻¹
Kd [10]: 18.7 µM
koff [10]: 0.33 s⁻¹
kon [10]: 19200 M⁻¹ s⁻¹

FN1-FN3 region of human CNTN5 (from UniProt O94779 19-1072) (domain or fragment)
Kd [7]: 10.9 µM
Kd [12]: 38.6 µM
Kd [9]: 9.8 µM
koff [9]: 0.17 s⁻¹
kon [9]: 17700 M⁻¹ s⁻¹
Kd [11]: 36.6 µM
koff [11]: 0.37 s⁻¹
kon [11]: 9440 M⁻¹ s⁻¹

FN1-FN3 region of mouse CNTN3 (from UniProt Q07409 20-1002) (domain or fragment)
Kd [13]: 2.9 µM
koff [13]: 0.15 s⁻¹
kon [13]: 56200 M⁻¹ s⁻¹

FN1-FN3 region of zebrafish CNTN5 (domain or fragment)
Kd [14]: 64.4 µM
koff [14]: 0.59 s⁻¹
kon [14]: 9560 M⁻¹ s⁻¹

FN1–FN3 region of chicken CNTN4 (domain or fragment)
Kd [15]: 5.4 µM
Kd [16]: 28.2 µM

FN1–FN3 region of chicken CNTN4, T751A and V752A (domain or fragment)
fold reduction in affinity against wild-type chicken CNTN4 [15]: 4 fold

FN1–FN3 region of chicken CNTN4, Y781A and E786A (domain or fragment)
Kd [15]: 115 µM

FN1–FN3 region of zebrafish CNTN5 (domain or fragment)
Kd [17]: 26.8 µM

ectodomain of contactin 4 (CNTN4) fused to human IgG1 Fc or to FcYTS (from UniProt Q69Z26 19-1000) (Fc fusion)
luminescent signal [18]: 1.56e+06
luminescent signal divided by the signal of APP-FcYTS with Fc only [18]: 848
